Reference: article doi:10.1101/474478 (bioRxiv, 2018)

Molecular target: the molecule itself
Experiment: crystal structure

B1: mouse Nudt12 catalytic domain (residues 126-462), E219A/E220A/E221A triple mutant (domain or fragment, UniProt Q9DCN1 126-462, looked up)
chain: LDRRSDKRNNSDWLQAKESHPTTVYLLFSDLNPLVTLGGNKESSQQPEVRLCQLNYPDVKGYLAQPEKITLVFLGVELEMRKGSPAQAGGVPEAAADGLVAWFALGIEPGAAEEFKQRHENCYFLHPPMPALLQLKEKEAGVVAQARSVLAWHSRYKFCPTCGSATKIEEGGYKRVCVRETCPSLQGVHNTSYPRVDPVVIMQVIHPDGTKCLLGRQKRFPPGMFTCLAGFIEPGETIEDAVRREVEEESGVKVGHVQYVSCQPWPMPSSLMIGCLAVAVSTEIKVDKNEIEDARWFTREQVVDVLTKGKQQAFFVPPSRAIAHQLIKHWVGMNPNL
stoichiometry N: 2
